{"source": "patent US20140348865A1", "about": "“[…] ON AN HIV-1 V1V2 SITE-OF-VULNERABILITY” (The United States of America, as represented by the …, priority 2011, published 2014)", "key": {"[1]": {"target": "monomeric gp120", "assay": "ELISA or SPR against neutralization"}, "[2]": {"target": "1FD6 ZM109 scaffold N173D", "assay": "ELISA"}, "[3]": {"target": "1FD6 ZM109 scaffold N130D", "assay": "ELISA"}, "[4]": {"target": "1FD6 ZM109 scaffold N192D", "assay": "ELISA"}, "[5]": {"target": "1FD6 ZM109 scaffold N160Q", "assay": "ELISA"}, "[6]": {"target": "1FD6 ZM109 scaffold N138D", "assay": "ELISA"}, "[7]": {"target": "1FD6-ZM109 V1V2 scaffold", "assay": "ELISA"}, "[8]": {"target": "1FD6 ZM109 scaffold N189D", "assay": "ELISA"}, "[9]": {"target": "C2101.c1 (HIV-1)"}, "[10]": {"target": "Env of HIV-1 strain CNE56 (pseudovirus) (HIV-1)"}, "[11]": {"target": "3301_V1_C24 (HIV-1)"}, "[12]": {"target": "BB539.2B13 (HIV-1)"}, "[13]": {"target": "Env of HIV-1 strain 0439 (pseudovirus) (HIV-1)"}, "[14]": {"target": "0330.v4.c3"}, "[15]": {"target": "R3265.c6"}, "[16]": {"target": "R1166.c1"}, "[17]": {"target": "MI369.A5"}, "[18]": {"target": "TH966.8"}, "[19]": {"target": "C2101.c1"}, "[20]": {"target": "CNE5"}, "[21]": {"target": "Env of HIV-1 strain QH209 (pseudovirus) (HIV-1)"}, "[22]": {"target": "3415.v1.c1"}, "[23]": {"target": "Q842.d12"}, "[24]": {"target": "Q769.d22"}, "[25]": {"target": "C3347.c11"}, "[26]": {"target": "BS208.B1"}, "[27]": {"target": "MB539.2B7"}, "[28]": {"target": "CNE59"}, "[29]": {"target": "C1080.c3"}, "[30]": {"target": "Env of HIV-1 strain CNE56 (pseudovirus) (HIV-1)", "remark": "listed apart in the source"}, "[31]": {"target": "MB201.A1"}, "[32]": {"target": "6540.v4.c1"}, "[33]": {"target": "KER2018.11"}, "[34]": {"target": "Q461.e2"}, "[35]": {"target": "BB539.2B13"}, "[36]": {"target": "TH976.17"}, "[37]": {"target": "RW020.2"}, "[38]": {"target": "Env of HIV-1 strain 398 (pseudovirus) (HIV-1)"}, "[39]": {"target": "Q168.a2"}, "[40]": {"target": "Q769.h5"}, "[41]": {"target": "MS208.A1"}, "[42]": {"target": "3468_V1_C12"}, "[43]": {"target": "0815_V3_C3"}, "[44]": {"target": "BB201.B42"}, "[45]": {"target": "BI369.9A"}, "[46]": {"target": "6095_V1_C10"}, "[47]": {"target": "CNE55"}, "[48]": {"target": "M02138"}, "[49]": {"target": "231965.c1"}, "[50]": {"target": "Env of HIV-1 strain X2088 (pseudovirus) (HIV-1)"}, "[51]": {"target": "ZM249.1"}, "[52]": {"target": "57128.vrc15"}, "[53]": {"target": "ZM55.28a"}, "[54]": {"target": "ZM214.15"}, "[55]": {"target": "UG024.2"}, "[56]": {"target": "ZM233.6"}, "[57]": {"target": "NKU3006.ec1"}, "[58]": {"target": "Env of HIV-1 strain A03349M1 (pseudovirus) (HIV-1)"}, "[59]": {"target": "3337.V2.C6"}, "[60]": {"target": "3016.v5.c45"}, "[61]": {"target": "3326.V4.C3"}, "[62]": {"target": "SIVmac251.30.SG3"}, "[63]": {"target": "Env of HIV-1 strain 6405 (pseudovirus) (HIV-1)"}, "[64]": {"target": "SVA.MLV"}, "[65]": {"target": "3817.v2.c59"}, "[66]": {"target": "ZM197.7"}, "[67]": {"target": "ZM215.8"}, "[68]": {"target": "UG021.16"}, "[69]": {"target": "ZM53.12"}}}
{"substance": "monoclonal antibody PG16", "values": [{"measurement": "fold weaker affinity for monomeric gp120 than for the viral spike", "setting": "[1]", "result": "> 100", "unit": "fold"}, {"measurement": "EC50", "setting": "[2]", "result": "> 50", "unit": "µg/mL"}, {"measurement": "EC50", "setting": "[3]", "result": 1.5, "unit": "µg/mL"}, {"measurement": "EC50", "setting": "[4]", "result": 2.5, "unit": "µg/mL"}, {"measurement": "EC50", "setting": "[5]", "result": "> 50", "unit": "µg/mL"}, {"measurement": "EC50", "setting": "[6]", "result": 4.4, "unit": "µg/mL"}, {"measurement": "EC50", "setting": "[7]", "result": 3.4, "unit": "µg/mL"}, {"measurement": "EC50", "setting": "[8]", "result": 4, "unit": "µg/mL"}, {"measurement": "neutralization IC80", "setting": "[9]", "result": 0.069, "unit": "µg/mL"}, {"measurement": "neutralization IC80", "setting": "[10]", "result": "> 50", "unit": "µg/mL"}, {"measurement": "neutralization IC80", "setting": "[11]", "result": 0.397, "unit": "µg/mL"}, {"measurement": "neutralization IC80", "setting": "[12]", "result": 0.062, "unit": "µg/mL"}, {"measurement": "neutralization IC80", "setting": "[13]", "result": "> 50", "unit": "µg/mL"}, {"measurement": "neutralization IC50", "setting": "[14]", "result": 0.006, "unit": "µg/mL"}, {"measurement": "neutralization IC50", "setting": "[15]", "result": 0.036, "unit": "µg/mL"}, {"measurement": "neutralization IC50", "setting": "[16]", "result": 0.587, "unit": "µg/mL"}, {"measurement": "neutralization IC50", "setting": "[17]", "result": 0.011, "unit": "µg/mL"}, {"measurement": "neutralization IC50", "setting": "[18]", "result": 0.008, "unit": "µg/mL"}, {"measurement": "neutralization IC50", "setting": "[19]", "result": 0.009, "unit": "µg/mL"}, {"measurement": "neutralization IC50", "setting": "[20]", "result": "< 0.023", "unit": "µg/mL"}, {"measurement": "neutralization IC50", "setting": "[21]", "result": "> 50", "unit": "µg/mL"}, {"measurement": "neutralization IC50", "setting": "[22]", "result": 0.036, "unit": "µg/mL"}, {"measurement": "neutralization IC50", "setting": "[23]", "result": 0.001, "unit": "µg/mL"}, {"measurement": "neutralization IC50", "setting": "[24]", "result": 0.01, "unit": "µg/mL"}, {"measurement": "neutralization IC50", "setting": "[25]", "result": 0.006, "unit": "µg/mL"}, {"measurement": "neutralization IC50", "setting": "[26]", "result": 0.004, "unit": "µg/mL"}, {"measurement": "neutralization IC50", "setting": "[27]", "result": 0.025, "unit": "µg/mL"}, {"measurement": "neutralization IC50", "setting": "[28]", "result": 0.113, "unit": "µg/mL"}, {"measurement": "neutralization IC50", "setting": "[29]", "result": 0.001, "unit": "µg/mL"}, {"measurement": "neutralization IC50", "setting": "[30]", "result": "> 50", "unit": "µg/mL"}, {"measurement": "neutralization IC50", "setting": "[31]", "result": 0.001, "unit": "µg/mL"}, {"measurement": "neutralization IC50", "setting": "[32]", "result": 0.017, "unit": "µg/mL"}, {"measurement": "neutralization IC50", "setting": "[33]", "result": "< 0.0006", "unit": "µg/mL"}, {"measurement": "neutralization IC50", "setting": "[34]", "result": 4.11, "unit": "µg/mL"}, {"measurement": "neutralization IC50", "setting": "[35]", "result": 0.012, "unit": "µg/mL"}, {"measurement": "neutralization IC50", "setting": "[36]", "result": "> 50", "unit": "µg/mL"}, {"measurement": "neutralization IC50", "setting": "[37]", "result": 0.07, "unit": "µg/mL"}, {"measurement": "neutralization IC50", "setting": "[38]", "result": "> 50", "unit": "µg/mL"}, {"measurement": "neutralization IC50", "setting": "[39]", "result": 0.031, "unit": "µg/mL"}, {"measurement": "neutralization IC50", "setting": "[40]", "result": 0.002, "unit": "µg/mL"}, {"measurement": "neutralization IC50", "setting": "[41]", "result": 0.047, "unit": "µg/mL"}, {"measurement": "neutralization IC50", "setting": "[42]", "result": 2.38, "unit": "µg/mL"}, {"measurement": "neutralization IC50", "setting": "[43]", "result": "> 50", "unit": "µg/mL"}, {"measurement": "neutralization IC50", "setting": "[44]", "result": 0.003, "unit": "µg/mL"}, {"measurement": "neutralization IC50", "setting": "[45]", "result": 0.007, "unit": "µg/mL"}, {"measurement": "neutralization IC50", "setting": "[46]", "result": "< 0.023", "unit": "µg/mL"}, {"measurement": "neutralization IC50", "setting": "[47]", "result": 1.37, "unit": "µg/mL"}, {"measurement": "neutralization IC50", "setting": "[48]", "result": 0.022, "unit": "µg/mL"}, {"measurement": "neutralization IC50", "setting": "[49]", "result": 4.72, "unit": "µg/mL"}, {"measurement": "neutralization IC50", "setting": "[50]", "result": "> 50", "unit": "µg/mL"}, {"measurement": "neutralization IC50", "setting": "[51]", "result": 0.073, "unit": "µg/mL"}, {"measurement": "neutralization IC50", "setting": "[52]", "result": 0.162, "unit": "µg/mL"}, {"measurement": "neutralization IC50", "setting": "[53]", "result": "> 50", "unit": "µg/mL"}, {"measurement": "neutralization IC50", "setting": "[54]", "result": "> 50", "unit": "µg/mL"}, {"measurement": "neutralization IC50", "setting": "[55]", "result": "> 50", "unit": "µg/mL"}, {"measurement": "neutralization IC50", "setting": "[56]", "result": "< 0.023", "unit": "µg/mL"}, {"measurement": "neutralization IC50", "setting": "[57]", "result": "> 50", "unit": "µg/mL"}, {"measurement": "neutralization IC50", "setting": "[58]", "result": "> 50", "unit": "µg/mL"}, {"measurement": "neutralization IC50", "setting": "[59]", "result": "> 50", "unit": "µg/mL"}, {"measurement": "neutralization IC50", "setting": "[60]", "result": "> 50", "unit": "µg/mL"}, {"measurement": "neutralization IC50", "setting": "[61]", "result": "< 0.023", "unit": "µg/mL"}, {"measurement": "neutralization IC50", "setting": "[62]", "result": "> 50", "unit": "µg/mL"}, {"measurement": "neutralization IC50", "setting": "[63]", "result": "> 50", "unit": "µg/mL"}, {"measurement": "neutralization IC50", "setting": "[64]", "result": "> 50", "unit": "µg/mL"}, {"measurement": "neutralization IC50", "setting": "[65]", "result": 0.006, "unit": "µg/mL"}, {"measurement": "neutralization IC50", "setting": "[66]", "result": 0.65, "unit": "µg/mL"}, {"measurement": "neutralization IC50", "setting": "[67]", "result": "> 50", "unit": "µg/mL"}, {"measurement": "neutralization IC50", "setting": "[68]", "result": "> 50", "unit": "µg/mL"}, {"measurement": "neutralization IC50", "setting": "[69]", "result": "< 0.023", "unit": "µg/mL"}]}
